Experimental data as given in patent US20250289897A1 (Eli Lilly, published 2025).

Legend:
[1] = target: T1, human LEPR, full length, on HEK293-STAT3Luc-hLepR1 cells (Homo sapiens, UniProt P48357 22-1165); test: flow cytometry on live HEK293-STAT3Luc-hLepR1 cells, AF647 anti-human IgG; average of 4 runs, SD 1.7
T1 construct: also called human LEPR on live cell surface
T1 sequence: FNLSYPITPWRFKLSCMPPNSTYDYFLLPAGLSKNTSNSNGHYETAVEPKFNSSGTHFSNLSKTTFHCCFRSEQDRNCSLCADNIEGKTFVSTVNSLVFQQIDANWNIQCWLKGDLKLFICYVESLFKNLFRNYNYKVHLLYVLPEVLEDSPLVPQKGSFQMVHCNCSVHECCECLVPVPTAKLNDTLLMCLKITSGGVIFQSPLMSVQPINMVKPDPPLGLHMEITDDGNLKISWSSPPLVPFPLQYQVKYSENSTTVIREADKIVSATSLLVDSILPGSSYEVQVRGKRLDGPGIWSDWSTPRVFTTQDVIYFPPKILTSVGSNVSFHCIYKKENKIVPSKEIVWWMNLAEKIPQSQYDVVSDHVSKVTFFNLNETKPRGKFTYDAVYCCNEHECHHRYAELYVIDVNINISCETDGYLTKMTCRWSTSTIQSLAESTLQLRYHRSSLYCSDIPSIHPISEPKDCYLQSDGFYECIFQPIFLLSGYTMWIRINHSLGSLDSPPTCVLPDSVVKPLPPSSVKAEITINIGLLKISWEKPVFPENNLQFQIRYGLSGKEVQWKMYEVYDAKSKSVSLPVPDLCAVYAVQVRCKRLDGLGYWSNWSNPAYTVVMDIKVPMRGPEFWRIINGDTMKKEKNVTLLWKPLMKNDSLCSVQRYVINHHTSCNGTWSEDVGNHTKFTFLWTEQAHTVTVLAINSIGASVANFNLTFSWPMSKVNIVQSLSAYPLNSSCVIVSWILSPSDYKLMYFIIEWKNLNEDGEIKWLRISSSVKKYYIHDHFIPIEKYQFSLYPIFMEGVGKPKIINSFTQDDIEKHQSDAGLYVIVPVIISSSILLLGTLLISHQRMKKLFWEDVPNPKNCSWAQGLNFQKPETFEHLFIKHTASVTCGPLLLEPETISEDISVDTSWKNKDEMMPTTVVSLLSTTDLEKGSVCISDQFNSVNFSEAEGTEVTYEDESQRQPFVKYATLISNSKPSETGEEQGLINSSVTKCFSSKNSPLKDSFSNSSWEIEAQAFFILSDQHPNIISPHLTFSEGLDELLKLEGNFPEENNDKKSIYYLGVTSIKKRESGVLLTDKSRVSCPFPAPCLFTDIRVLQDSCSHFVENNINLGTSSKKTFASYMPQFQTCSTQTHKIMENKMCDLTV
Experimental: Cells were incubated in blocking buffer for 10 mins at room temperature. After one rinse with PBS, cells were transferred to U-bottom 96-well plate at 200 μL and 0.2˜0.26^e6 cells/well. […] Cells were then incubated with 30 μL/well of antibodies diluted in flow buffer at 1000 nM as high dose followed by 9-point dose response including 5-fold dilutions not including 0 (totaling 9 concentrations for each Antibody) for 30 minutes at 4° C. in dark.

canine LEPR-ECD-His = target: T2, canine LEPR-ECD-His (canine); test: SPR (Biacore T200), antibody captured on Protein A/G chip, His-tagged LEPR-ECD as analyte, 1:1 fit; mean n=2, SD 1.9E-8
T2 chain: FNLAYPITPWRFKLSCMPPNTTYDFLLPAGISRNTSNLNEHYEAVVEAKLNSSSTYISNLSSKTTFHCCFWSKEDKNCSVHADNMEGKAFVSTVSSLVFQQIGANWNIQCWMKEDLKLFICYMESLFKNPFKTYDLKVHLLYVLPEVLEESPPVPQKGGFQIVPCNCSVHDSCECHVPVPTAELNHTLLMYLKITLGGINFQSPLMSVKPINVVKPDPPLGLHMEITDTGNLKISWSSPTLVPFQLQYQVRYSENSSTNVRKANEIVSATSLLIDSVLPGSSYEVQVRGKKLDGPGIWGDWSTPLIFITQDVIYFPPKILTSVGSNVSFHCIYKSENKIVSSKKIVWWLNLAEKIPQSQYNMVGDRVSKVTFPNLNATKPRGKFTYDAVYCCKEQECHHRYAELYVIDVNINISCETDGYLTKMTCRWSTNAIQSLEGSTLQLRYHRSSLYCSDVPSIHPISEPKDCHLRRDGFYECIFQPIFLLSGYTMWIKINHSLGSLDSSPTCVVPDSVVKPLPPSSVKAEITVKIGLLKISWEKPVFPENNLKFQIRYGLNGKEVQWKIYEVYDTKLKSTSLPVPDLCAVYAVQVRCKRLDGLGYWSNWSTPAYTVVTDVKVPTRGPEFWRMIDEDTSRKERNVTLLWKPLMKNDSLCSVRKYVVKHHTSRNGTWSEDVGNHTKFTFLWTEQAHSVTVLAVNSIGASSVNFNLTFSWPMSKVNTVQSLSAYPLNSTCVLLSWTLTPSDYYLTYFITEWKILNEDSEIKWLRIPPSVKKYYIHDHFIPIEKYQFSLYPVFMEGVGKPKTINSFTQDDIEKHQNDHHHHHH
Experimental: (§1) His-tagged ECDs were expressed and purified for each species and used for affinity analysis. A Protein A/G chip (Xantec, Cat #PAGHC200M) was utilized in this experiment with HBS-EP +0.01% BSA as running buffer. Antibodies were diluted to 1 μg/mL in running buffer and captured to a single flow cell on the chip surface. Each species of LEPR-ECD was diluted to 1000 nM in running buffer followed by 2-fold serial dilution. Each ligand concentration was injected over all flow cells at 100 L/min for 150 seconds followed by a 600 second dissociation phase. Regeneration was performed by injecting 10 mM glycine pH1.5 for 30 seconds at 10 μL/min. Data were analyzed in Biacore T200 Evaluation Software 3.1 by flow-cell 1 reference subtraction along with 0 nM blank subtraction. Data were fit globally using a “1:1 Binding” binding model to determine the on-rate (kₐ) and off-rate (kd) for each ligand. The affinity (KD) was calculated from the binding kinetics according to the relationship KD=kₐ/kd. Data reported as mean±standard deviation of experimental replicates.

CYNO LEPR-ECD-His = target: T3, CYNO LEPR-ECD-His (cynomolgus monkey, UniProt Q9MYL0 22-837 (rhesus entry)); test: SPR (Biacore T200), antibody captured on Protein A/G chip, His-tagged LEPR-ECD as analyte, 1:1 fit; mean n=4, SD 1.7E-8
T3 construct: also called cynomolgus monkey LEPR
T3 sequence: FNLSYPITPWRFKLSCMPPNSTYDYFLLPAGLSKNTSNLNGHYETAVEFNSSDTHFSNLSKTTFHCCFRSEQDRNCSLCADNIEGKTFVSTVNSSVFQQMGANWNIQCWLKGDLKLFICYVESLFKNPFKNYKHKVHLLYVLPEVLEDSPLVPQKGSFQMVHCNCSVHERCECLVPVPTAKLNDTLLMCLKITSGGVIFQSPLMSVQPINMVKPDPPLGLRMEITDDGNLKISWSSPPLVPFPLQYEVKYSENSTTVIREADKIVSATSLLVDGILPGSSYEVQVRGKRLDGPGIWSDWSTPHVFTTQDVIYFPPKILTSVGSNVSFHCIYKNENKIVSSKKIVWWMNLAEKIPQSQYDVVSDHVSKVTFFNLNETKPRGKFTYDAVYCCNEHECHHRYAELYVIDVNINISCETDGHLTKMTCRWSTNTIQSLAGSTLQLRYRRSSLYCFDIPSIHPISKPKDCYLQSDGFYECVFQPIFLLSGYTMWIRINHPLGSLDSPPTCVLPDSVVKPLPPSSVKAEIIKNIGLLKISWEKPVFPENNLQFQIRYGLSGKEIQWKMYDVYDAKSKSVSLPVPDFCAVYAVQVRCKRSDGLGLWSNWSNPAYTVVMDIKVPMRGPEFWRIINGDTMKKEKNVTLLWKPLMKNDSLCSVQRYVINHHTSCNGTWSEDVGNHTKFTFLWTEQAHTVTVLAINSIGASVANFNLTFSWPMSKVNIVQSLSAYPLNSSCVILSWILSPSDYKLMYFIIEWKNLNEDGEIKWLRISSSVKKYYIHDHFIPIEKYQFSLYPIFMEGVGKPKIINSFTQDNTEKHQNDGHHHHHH
Experimental: as §1

B1: Antibody A (antibody, human IgG1, kappa, L234A L235A)
heavy: EVQLLESGGGLVQPGGSLRLSCAASGFTFSSFAMSWVRQAPGKGLEWVSAISGSGGSTYSADSVRGRFTISRDNSKNTLYLQMNSLRAEDTAVYYCAKDQGDWDFLFDYWGQGTLVTVSSASTKGPSVFPLAPSSKSTSGGTAALGCLVKDYFPEPVTVSWNSGALTSGVHTFPAVLQSSGLYSLSSVVTVPSSSLGTQTYICNVNHKPSNTKVDKRVEPKSCDKTHTCPPCPAPEAAGGPSVFLFPPKPKDTLYITREPEVTCVVVSVSHEDPEVKFNWYVDGVEVHNAKTKPREEQYNSTYRVVSVLTVLHQDWLNGKEYKCKVSNKALPAPIEKTISKAKGQPREPQVYTLPPSREEMTKNQVSLTCLVKGFYPSDIAVEWESNGQPENNYKTTPPVLDSDGSFFLYSKLTVDKSRWQQGNVFSCSVMHEALHNHYTQKSLSLSPGK
light: DIQMTQSPSFLSASVGDRVTITCRASQGISSSLAWYQQKPGKAPKLLIYTASTLQSGVPSRFSGSGSGTEFTLTISSLQPEDFATYYCQQLIYYPFTFGQGTKVEIKRTVAAPSVFIFPPSDEQLKSGTASVVCLLNNFYPREAKVQWKVDNALQSGNSQESVTEQDSKDSTYSLSSTLTLSKADYEKHKVYACEVTHQGLSSPVTKSFNRGEC
notes: IgG1 mAb
Work on B1 yielded an EC50 [1] of 2.45 nM.

B2: Antibody B (antibody, human IgG1, kappa, L234A L235A, V domains shown)
VH: EVQLLESGGGLVQPGGSLRLSCAASGFTFSSFAMSWVRQAPGKGLEWVSAISGSGGSTYSADSVRGRFTISRDNSKNTLYLQMNSLRAEDTAVYYCAKDQGDWDFLFDYWGQGTLVTVSS
VL: DIQMTQSPSFLSASVGDRVTITCRVSQGISSSLAWYQQKPGKAPKLLIYTASTLQSGVPSRFSGSGSGTEFTLTISSLQPEDFATYYCQQLNYYPFTFGQGTKVEIKR
B2 was tested, and the Kd (canine LEPR-ECD-His) was 330 nM and the Kd (CYNO LEPR-ECD-His) was 32 nM.
